Test results as given in doi:10.1101/2024.08.03.606473.

Key:
[1] = target: SidF C-trim (residues 1-443) (Aspergillus fumigatus) (UniProt Q4WF55); experiment: SEC
[2] = target: SidF C-trim (residues 1-443) (Aspergillus fumigatus) (UniProt Q4WF55); experiment: SAXS

SidF C-trim (residues 1-443) (from UniProt Q4WF55 1-443) (domain or fragment)
stoichiometry N [1]: 4 | stoichiometry N [2]: 2
